Measured values from publication PMC9330529.
Like-named read-outs stand apart in the source and are kept apart here.

Key:
[1] = molecular target: SARS-CoV-2 spike protein WT (SARS-CoV-2 (WT)) (UniProt P0DTC2)
[2] = molecular target: SARS-CoV-2 spike protein WT (SARS-CoV-2 (WT)) (UniProt P0DTC2); assay: competition ELISA
[3] = molecular target: SARS-CoV-2 spike protein WT (SARS-CoV-2 (WT)) (UniProt P0DTC2); remark: listed apart in the source
[4] = molecular target: SARS-CoV-2 spike protein WT (SARS-CoV-2 (WT)) (UniProt P0DTC2); remark: listed apart in the source

Row | Sequence | Kd [1] [nM] | binding signal (% spike still bound to hACE2) [2] | Kd [3] [nM] | Kd [4] [nM]
1 | AGGCGGGTTCCTAGACTTGTACTCAGCCTTTTTTTTTTTTTTTTCGCAGCACCCAAGAACAAGGACTGCTTAGGATTGCGATAGGTTCGG [S2A2C1-T15-S1B6C3] | 61.4 |  |  | 
2 | CGCAGCACCCAAGAACAAGGACTGCTTAGGATTGCGATAGGTTCGGAAAAAAAAAAAAAAAAGGCGGGTTCCTAGACTTGTACTCAGCCT [S1B6C3-A15-S2A2C1] |  | 12 |  | 
3 | CGCAGCACCCAAGAACAAGGACTGCTTAGGATTGCGATAGGTTCGGAAAAAAGGCGGGTTCCTAGACTTGTACTCAGCCT [S1B6C3-A5-S2A2C1] |  | 8 | 35.8 | 34.6
4 | CGCAGCACCCAAGAACAAGGACTGCTTAGGATTGCGATAGGTTCGGTTTTTTTTTTTTTTTAGGCGGGTTCCTAGACTTGTACTCAGCCT [S1B6C3-T15-S2A2C1] | 46.1 | 24 |  | 
